This data set in a line: soluble on expression in E. coli; label from the status in PepcDB or PDB records.
Take “MNKFIQSLPKVELHLHIEGTLEPELMLELAQRNSINIPFNSVEEIRDAYNFHNLQSFLDIYFQGADVLVHEQDFFDLTWAYLLRCQEDNVLHTEIFFDPQAHTERGILFDTVVNGIDRALNKGVSELGITSKLIMCFLRHLDEESAFKTLTQAQAHKDKIIGVGLDSTEIGNPANKFERVFKQAIEQGFLTVAHAGEEGPADNISEALSLLKITRIDHGVRCSEDASLVKQLVSERIPLTVCPLSNIKLKVFDRMEQHNIVTLLRQGVCVTINSDDPAYFGGYMTDNFVAVNNAHPMNKAEIAQFTFNAIEASFVSPSEQERLRQVTQKYIALHQE”: the “soluble on expression in E. coli” value was “not soluble”. For “MNKFSLFFALTATLMTITESAVPTASISAHVLDISGGSPAGGVQILAYIQQNDDWTKIGSEFTQDNGRVDWVSPDFTLIPGTYRLVYITEPYYKAKNVESFYPYVEVVFNIRDATQHYHVPLTLSPWGYSTYRGS” the value was “not soluble”; for “MNKHTTLPNLMQKIVSDEDLQSIIEAVGYHDTSRTFTVRTLVDFFLLAALHEWKSFRHGADVAKMYGLPTFHYSTVSKKAKEVPYEVMKRLFALVVSKCNRQTRRSLRFPKALRVVDSTTVTVGKNRLAWAPYHGERSGVKMHVAYSPEQQMPSDIVETVGLRHDGPVGEQLTDAQSVLVEDRAYFKIERIARFVEQKPPFVFG”, “not soluble”; for “MNKIETDTLLLPVIGESPAGDDIEYDPVYSEIREARQNDPDYMSQGEWAVSEPRRADWRKVRKLCEVTLRNKSKDLQISCWYVESLTHLYALEGMHCGLEYLAKFISQYWTTCWPSQEEGQEIRYSKLVRLDIDLSEYLKAYPLLEDKEITLSEWYKVLSFEHGASLSEAGKERLIESEGDHSVESFKRAVGKYNPRKVSEQLLQLYDLPDKIDEIESSYFFHTHEDIHHIFAKTRHIISEITELLSRFLPQETLDHSSVSQFLGKPDSRDTRTALPEEKKEFYSALTPSTDKEMSREKAIEQLEKIAIFFRQSEPTSPVPYLLERAIRWSTMTMSEWLEELLKDNDSMEQINRVLKG”, “not soluble”. For the sequence “MNKKHYLLYGSERYALAILRPLQAAIRARGDEAAWFFDGPGAEDLAADEQLLSVAQVRLWKPYAVITSSNAVPHFFPGVKVEVFHGFNAGKPRHVYSRGFFDLYCTTGPRDTAAFGELADRLGHFAVKQTGWPKIDPFMGEMSQALVPVRQPPVILYHSTFSPSWSAADILYDEIKRLSLRGEWRWIVTFHPKMNPDVVARYRALQSEHLCFSDNDNILELFPHVDMMCSDTSSALNEFLLTCKPVVTFKNRNPGPQLIDIDDPAQFESAIRRALSRPPELLSAIRAYADAIHPYWDGRSSERVLEAIDAFVAEGGRNRRTKPLNLWRKFKLRKRIGYWGPAWL”, the “soluble on expression in E. coli” value was “not soluble”. The same measure for “MNKKRMIAMVSTALLVTGCAEVGNAQTVAVENSGQSVQKNIVKSIQSQANPLKTIEPSKPFEDLKPLKKMIGNAQYVGLGENTHGSSEIFTMKFRLVKYLVTEMGFTNFAMEEDWGNGLKLNEYIQTGKGNPREFLKLLYPTDEIIAMIEWMKDYNADPSNKKKIQFIGLDLKALDQGSFNKVIDYVRLHRPDLLAEVEENYKELSSFTGSIQEYMKLTPKLKEKFKANAERVARLLKDENEQANTEIIPSEYIWAKATASAIEKFTTMLLPNDYPSIIKLHEQYLADHAMWAQETFGGKTMVWAHNIHIAKGIIDEKLYPYVAGQFLKERLDNNYVTIGSTTTEGNFTLYSEYNPSTGGKITTDTIPQDVKSFNYTLGKVPYKMFLLDNRHLKGQAEKWVKAKRPLLSIGGQILPNSSVYFDTSLLEQFDIIFHIRKTSPSHIKLEHHHHHH”: “soluble”; for “MNKPTLGIDLDTTLNTLDREWVKRYNEIYKDKLLPSDIKGWDIENYVKPECGKKIYDILKEPHFFRNLGVQPFAETALEELTSIFNIYIVSATHYKVCEDKGNWIKEKFPFISYQNIIFCHNKGLVHLDILIDDNPLNLENFKGNKILFDAHHNKSENRFVRARDWYEAKALCESLKDFL”: “not soluble”. For “MNKQPGEQPVSCATSTGKSEKERQKDEPPRSRAEAGMMRGGGRLPQPRDTPMEVPNMIAAMPIQMTGFVDLAPHTILDVLAQTTSLMIVQCLEPLEIFTGIETPNRYVVHDMYCRPLLYCMERSSFFARQHQGSQRNFAMQCMDIFGAPVMNCFRSRPCCSCDDFLATEFLGQRIGMMKRECCDDNFHLVGTGSNEPLLVRSPGCACCGGTQVFPVMTYNGAKIGEIVRLYPGFMQEWYTDADTYIVHFPPDLPPILKILLISSTFLIDYTFFENRGGNQRGGYGHGGYGYY”, the “soluble on expression in E. coli” value is “not soluble”. For “MNLDDIESLSEQIARHIGEQIITGELVEGERIQELRIAKELDVSRGSVREALLLLERTHLIEIFPRRGAIVSEMSSQQVKALFDSSVLVLGHIVQKISESWRVHEAEQLQHLIEQLNEHVKAGDTEKFYDGIFEYLAQQHDMVMNAYLMKFYKELLPSLRRSYFLTLNTSRRELQEALALFKLVTDAILIRKSHQATLFMEDFCRHLRNLVLESLTRMKQIELAWARRSRRSSNR” the value was “not soluble”; for “MNLEQLINVLGLLVWIAARAVSRVGPHGSGLVYRELHDFYGYLQLDLLGPVVAGNRSVRTWREQADRARGTFAWRSGLNTSRILPVGSMYRGSDALPAGLYRPEEEVFLLLNRCHGPLSTPKNACLAEVGVANATFLSRFNVGDFHGASWENGTAPDGEPGVCLEHHHHHH”, “not soluble”. The same measure for “MNLKQISAIIIVKNAKQTLLECLNSLKDFDEIILLNNESSDNTLNIANEFKKDFANLHIYHSAFIGFGALKNLALSYAKNDWILSIDADEVLENECIKELKNLELQEDNIIALSRKNLYKGEWIKACGWWPDYVWRIFNKNFTRFNDNLVHESLVLPSNAKKIYLKNGLRHYAFRDISHLIDKMQYYSSLWAKQNIHKKSGVLKANLRAFWTFFRNYFLKNGFLYGYKGFIISVCNALGTFFKYMKLYELQKQKPKTCALIITTYNQKERLKLVLDSVKNLAFLPNEVLIADDGSKEDTARLIEEYQKDFPCPLKHIWQEDEGFRAAKSRNNAIKASKSEYIILIDGDMILEKDFVKNHLEFAKRKVILQGSRVILNKNESEEILKNNNYSLAFNKKGFKNQRSIFLAKCVYKFSKLTKKFFKKSQLVKGSKTCNMSFYKSDFEAIEGFNEKFIGWGREDSEFVARFLFNDGVFKRLKFNALAYHIYHEENSKNMLEINHQIYLETIKNEKTTWRLEHHHHHH”: “not soluble”; for “MNLRTQKFHMYFKQWIELYKEGAVRPVTYQKYQMSHKHLVTLAPDLHMDELKRRTYQELINEFAANHEKQTTLDFHHHLKAAILDALDEGILEQDPTRKVLEHHHHHH”: “not soluble”; for “MNLSNLWQSCLLQLQDQVSASDLSTWLRPLQADVVADNHIVLYASNMFVKGWVETHYLAQIQQICQTLAQNPELRISLKEGVKPAPKIVESTPNTSLRSESAVDFQAESSASVKFESHLNTKHLFDNFVEGKSNQLARAVGQKLAQAPGEPSANPFFLYGGTGLGKTHLLHAIGNGILADKPNARVLYIHANNFMQHMVKAVRDNKMDQFKKFYRSLDALLVDDIQFFAEKEKTQEEFFHIFNSLFETGRQIILTSDRYPKEIEKIEERLKSRFGWGLTTAIEPPDLETRVAILLKKAEEHNMNLPEEVAFFIAQRLRTNVRELEGALNRVKAMQDFKGGDIDIDFVRDTLKDILALQERLVTIENIQKVVAEYYRIKVSDLKSKSRARSVTRPRQIAMALAKELTNRSLPEIGRAFDRDHTTVLNACREVPKFREQDNSIQEDWANLIRTLSALEHHHHHH”: “soluble”. The same measure for “MNLTQMLPDLDDVPESLLDEAIFDSFLSWTRSKDLALYPAQEEAALGILAGDNVILATPTGSGKSMVAIAAHFIAMARGQRSFYTAPIKALVNEKFFALCDIFGPESVGMMTGDATVNGSAPIICATAEIVANIALRDGTDADIDQVVMDEFHYYSEPGRGWAWQVPLLELPRTQFLLMSATLGDTTFIQKDLSDRTGRTTNLVAGATRPVPLQFSYVYTPVHETIQDLLDTNNAPIYVVHFTQREAIERAQSLTSMTVIDSETKEKIATEIGNFKFTTTFGHTLSKLLRKGIGVHHAGMLPKYRRLVEKLSQTGLLKIICGTDTLGVGINVPIRTVLFTGLAKFDGSKQRILASREFHQIAGRAGRAGYDTVGNVVIEAPEHEIENWRLRQRAGSDLKKLKKLRKKSARDGEVTWGEKTYERLSEAEPENLQSQFRISNSMLLNVIARSGDAYVHLKHLLRTNHDTRDKQNKDILTALELFRGLVAAGIVEKLDSPDSTGRKYVITEDLRRDFALNQPLAPFALAALEILDKESTSYALDVISVFESILEDPRVVLIAQQKQARGEEIAALKAEGVEYTERMNIVEEISWPKPLEEILEPAFDTYCSGHPWAKEFTLSPKSIVRDMIEHGMTFSDFIATYGLSRSEGVVLHYLTDAWKTLSHSVPTEYVSDELEEIIEWLGELVRQVDSSLIDEWANMADPDAPISQDTVDQQRAFGVEDPNAITANSRAFAVMVRNLMFRMVQLFAAEEEEKLEALTDYLDEQPDFSEALDVYFDEYSDLDVGPDARGREYFLLKKDGRIWSVRQIIKDPNDDRAFSFAATVDLNASDAADEVRFAKFSIDS”: “not soluble”; for “MNLVELGSKTAKDGFKNEKDIADRFENWKENSEAQDWLVTMGHNLDEIKSVKAVVLSGYKSDINVQVLVFYKDALDIHNIQVKLVSNKRGFNQIDKHWLAHYQEMWKFDDNLLRILRHFTGELPPYHSNTKDKRRMFMTEFSQEEQNIVLNWLEKNRVLVLTDILRGRGDFAAEWVLVAQKVSNNARWILRNINEVLQHYGSGDISLSPRGSINFGRVTIQRKGGDNGRETANMLQFKIDPTELFDI”: “soluble”; for “MNLVSLRDSPQYLERAIAYFQSKWGNENTKMVYDNCFRHSLNAENPIPQWYLLMNGDEIIGCAGLTSNDFNSRADLYPWLVALFIEEKYRGNHYANLLIEQAKKDTLKFGFSKLYLSTSHTSYYERLGFTYIGDCWHPWGESSRVYEIILKF”: “not soluble”.

As for “MNMLEKVQSQLEHLSKSERKVADVILAAPGRSIHLSIAMLAQEANVSEPTVNRFCRSMNTRGFPDFKLHLAQSLANGTPYVNRNVDEDDSVEAYTGKIFESAMASLDHVRQSLDKSAVNRAVDLLTQAKKIAFFGLGSSAAVAHDAMNKFFRFNVPVIYSDDIVLQRMSCMNCSDDDVVVLISHTGRTKSLVELAQLARENDAMVIALTSAGTPLAREATLAITLDVPEDTDIYMPMVSRLAQLTVIDVLATGFTLRRGAKFRDNLKRVKEALKESRFDKELLIKSDDR”, the “soluble on expression in E. coli” value is “not soluble”.

For “MNMSQNLDFIHSAQRTIGLERDAVDSLLARIGDDFVKACELLLAGKGRVVVVGMGKSGHVGKKIAATLASTGTPSFFVHPAEASHGDMGMITKDDVVLALSNSGSTAEIVTLLPLIKRLGITLISMTGNPESPLAKAAEVNLDASVGQEACPLNLAPTSSTTVTLVLGDALAIALLEARGFTAEDFAFSHPGGALGRRLLLKVEDVMHVGEGLPQVLLGTSLTGALMEMTRKGLGMTVVLDEHGKLAGIFTDGDLRRALDRGIDVRQVTIDQVMTVHGKTVRAEILAAEALKIMEDNKIGALVVVDADDRPVGALNMHDLLRAGVM”, the “soluble on expression in E. coli” value is “not soluble”. For “MNNDNKRSAGGLGLVGDIGGTNARFALWRGQRLESIEVLACADYPRPELAVRDYLARIGESVANIDSVCLACAGPVGAADFRFTNNHWVINRAAFREELGLDHLLLVNDFSTMAWAASRLGADELVQVRAGSAQADRARLIIGPGTGLGVGSLLPLGGGRWEVLPCEGGHVDLPVTSPRDFALWQGLQARYGHVSAERALSGNGLLALYEISCALDGVAVRASSAAEVGALAMAGDAQADAVLEHFFLWLARVAGNAVLTVGALGGVYITGGIVPRFLERFIASGFAEAFASRGKTSGAYLQDVPVWVMTAEHPGLLGAGVALQQALDAEG” the value was “not soluble”.

The values above are taken from the DeepSol protein solubility set.
